Tests used:
[1] = molecular target: NR5A2 D159A D159A (Homo sapiens) (UniProt O00482); assay: smFRET; details: EMSA: 20 mM Tris-HCl pH 7.5, 120 mM NaCl, 1 mM MgCl2, 10 uM ZnCl2, 1 mM DTT, 100 ug/ml BSA, room temperature, 30 min, 50 nM DNA or nucleosome
[2] = molecular target: NR5A2 wild type (Homo sapiens) (UniProt O00482); assay: smFRET; details: EMSA: 20 mM Tris-HCl pH 7.5, 120 mM NaCl, 1 mM MgCl2, 10 uM ZnCl2, 1 mM DTT, 100 ug/ml BSA, room temperature, 30 min, 50 nM DNA or nucleosome
[3] = molecular target: nucleosome reconstituted with Alexa-Fluor-647-labeled H2A-K119C–H2B, H3.3–H4 and DNA carrying the Nr5a2 motif (mouse) (UniProt P10853); assay: FRET or BRET; single-molecule FRET (TIRF): nucleosomes held on the surface by biotin-streptavidin, Cy3 on the 5' end of 601 DNA next to the motif at SHL +5.5, Alexa Fluor 647 on H2A-K119C; NR5A2 flowed in at 0.1 or 0.5 uM (quantified at 0.1 uM); 50 mM Tris pH 7.6, 120 mM NaCl, 1 mM MgCl2, 10 uM ZnCl2, 10% glycerol, 1 mM DTT, 100 ug/ml BSA; 22.5 C; low-FRET state taken as NR5A2 dwell time, single exponential fits, three replicates

Substance	binding signal [1] [s]	binding signal ([1]; mean lifetime of low-FRET (unwrapped) state, less stable than wild type) [s]	binding signal [2] [s]	binding signal ([2]; mean lifetime of low-FRET (unwrapped) state) [s]	average lifetime of the high-FRET (wrapped, unbound) state [3] [s]	duration of the low-FRET (unwrapped) state, taken as NR5A2 dwell time [3] [s]
601 nucleosome SHL +5.5 for smFRET, with linker DNA	16.4	9.19	20.3	16.4		
human NR5A2 (from UniProt O00482 1-541) (natural protein)					20.3	16.4
human NR5A2-D159A (from UniProt O00482 1-541) (natural protein)					16.4	9.19

Source: publication PMC11102866
